From US20200262895A1 (Biogen, published 2020) come the findings set out here.

Assay [1] deals with T1, recombinant human tau, isoform Tau-F of 441 aa (hTau40) (human, UniProt P10636 1-758).
T1 construct: Bought from rPeptide (Bogart, GA, USA); coated on ELISA plates, blotted, or spotted as overlapping peptides; also called full-length tau; rTau
Description: direct ELISA, hTau40 coated at 3 ug/ml. The source says:
(§1) The EC₅₀ values were estimated by a non-linear regression using GraphPad Prism software.

Assay [2] has as its target T1, recombinant human tau, isoform Tau-F of …. In words: direct ELISA, hTau40 coated at 1 ug/ml. The method, then: as §1
ELISA plates were coated with recombinant human tau (hTau40, 1 ug/ml), PHFTau (1:100) and control preparation (1:100), and incubated with varying antibody concentrations.
On the technique in general: An ELISA detects its analyte on a solid surface through an enzyme-linked reagent.

Assay [3] has the same target. In words: direct ELISA on coated recombinant tau (rTau).
The target in assay [4] is T2, PHFTau (paired helical filaments containing pathologically phosphorylated tau filaments, extracted from AD … (human, UniProt P10636-8 1-441, limits assumed, pathologically phosphorylated (sites of the preparation not listed), aggregated filaments)).
T2 construct: Brain extract, not a single defined isoform; also called human PHF tau; pathologically modified PHFTau
T2 sequence (P10636 other isoform, or with tags, fused parts or gaps limits assumed): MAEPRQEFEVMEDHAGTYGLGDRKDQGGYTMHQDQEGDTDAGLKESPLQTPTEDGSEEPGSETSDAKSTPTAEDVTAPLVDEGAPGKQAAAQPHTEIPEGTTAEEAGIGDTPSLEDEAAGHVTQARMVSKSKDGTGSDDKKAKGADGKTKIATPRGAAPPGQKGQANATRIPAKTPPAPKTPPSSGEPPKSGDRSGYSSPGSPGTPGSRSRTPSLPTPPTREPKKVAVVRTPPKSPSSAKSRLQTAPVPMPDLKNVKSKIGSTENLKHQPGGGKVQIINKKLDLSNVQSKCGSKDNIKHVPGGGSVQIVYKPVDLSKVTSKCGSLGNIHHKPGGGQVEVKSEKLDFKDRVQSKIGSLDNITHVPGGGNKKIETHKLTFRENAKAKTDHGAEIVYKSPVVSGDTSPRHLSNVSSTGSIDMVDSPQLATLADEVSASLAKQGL
In words: direct ELISA on coated PHFTau.

Assay [5] has as its target T3, normal tau in wild type mouse brain (Wt) (mouse, UniProt P10637-2 1-430, limits assumed).
T3 construct: Control tissue in immunohistochemistry
Description: immunohistochemistry on brain tissue.

The target of assay [6] is T1, recombinant human tau, isoform Tau-F of …. In words: binding of CHO-produced antibody to recombinant tau; format not stated.

T1 sequence (P10636 other isoform, or with tags, fused parts or gaps limits assumed): as above
T3 sequence (P10637 other isoform, or with tags, fused parts or gaps limits assumed): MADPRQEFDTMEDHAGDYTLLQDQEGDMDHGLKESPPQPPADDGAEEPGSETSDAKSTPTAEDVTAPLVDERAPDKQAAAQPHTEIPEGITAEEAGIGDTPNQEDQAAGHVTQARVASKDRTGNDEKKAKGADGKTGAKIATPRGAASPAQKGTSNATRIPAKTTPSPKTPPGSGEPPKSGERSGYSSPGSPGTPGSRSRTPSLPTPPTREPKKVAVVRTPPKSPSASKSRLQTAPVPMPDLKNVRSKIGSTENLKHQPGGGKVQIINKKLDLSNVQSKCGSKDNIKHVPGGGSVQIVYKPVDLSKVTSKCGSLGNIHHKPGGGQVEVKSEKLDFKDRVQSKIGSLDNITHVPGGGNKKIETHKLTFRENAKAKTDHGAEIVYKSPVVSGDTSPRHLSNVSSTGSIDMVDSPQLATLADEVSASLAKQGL

B1: recombinant human antibody NI-105.24B2 (antibody, V domains shown)
VH: EVQLVQSGAEVKKPGASVKVSCKASGYTFVNYIIHWVRQAPGQGLEWMGIINPNGGNTSYAEKFQARVTLTSDTSTSTVYMDLSSLTSEDTAVYYCAVLSPSNPWGQGTTVTVSS
VL: SYVLTQPPSVSVSPGQTAGITCSGDALPKQFVYWYQKKPGQAPVLLIYKDTERPSRIPERFSGSTSGTTVALTINGVQAEDEADYYCQSADRSGALWVFGGGTKLTVL
notes: Human antibody described in US 2012/0087861; used as cloned
Take B1: the EC50 – broadly, the concentration that produces a half-maximal response – in assay [1] is 6600 pM.

B2: recombinant human antibody NI-105.4A3 (antibody, V domains shown)
VH: EVQLVETGGGAVQPGGSLRLSCAASGFTFSDYAMHWVRQAPGKGLQWVAVISYEGTYKYYADSVKGRFTISRDNSKNTLNLQMSSLRVEDTAVYFCVKARAFASGQRSTSTVPDYWGQGTLVTVSS
VL: SYELTQPPSVSVSPGQTARITCSGDALPKKYAYWYQQKSGQAPVLVIYEDNKRPSGIPERFSGSSSGTVATLTISGAQVDDEADYYCYSTDISGDLRVFGGGTKLTVL
notes: as for B1
As for B2, the EC50 in assay [2] was determined as 1400 pM.

B3: recombinant human antibody NI-105.6C5 (germlined) (antibody, human IgG1, V domains shown)
VH: QVQLVESGGGVVQPGRSLRVSCAASGFTFSSYDMHWVRQAPGKGLEWVAVIWFDGSNEFYADSVKGRFTISRDNSKNTLFLQMNSLRAEDTAVYYCARDLGASVTTSNAENFHHWGQGTLVTVSS
VL: SYELTQPPSVSVSPGQTARITCSGDALPKRYVYWYQQKSGQAPVLVIYEDSKRPSGIPETFSGSSSGTMATLTISGAQVEDEADYYCYSTDSNGHHWVFGGGTKLTVL
Consider B3, for which the EC50 was determined as 33 pM in assay [3] and 40 pM in assay [4]. For the same molecule, the binding result in assay [5] is on record as “no binding”.

B4: chimeric NI-105.4E4(N30Q) (ch4E4(N30Q)), mouse IgG2a/lambda (antibody, V domains shown)
VH: EVQLVESGGGLVQPGGSLKLSCAASGFNFQISAIHWVRQASGKGLEWVGRIRSKSHNYATLYAASLKGRFTLSRDDSRNTAYLQMSSLQTEDMAVYYCTVLSANYDTFDYWGQGTLVTVSS
VL: SYELTQPPSVSVSPGQTARISCFGDTLPKQYTYWYQQKPGQAPVLVIYKDTERPSGIPERFSGSSSGTTVTLTISGVQAEDEADYYCLSADNSATWVFGGGTKVTVLG
notes: Only the heavy chain of ch4E4 was changed (Asn-30 to Gln)
With B4, the “fold higher apparent binding affinity relative to the original, glycosylated antibody (ch4E4)” value in assay [6] is about 4 fold.
